Assay results as given in the RNAGym collection of RNA variant scans (doi:10.1073/pnas.2313332121).

B1: TPR t1 (parent)
chain: GACCAAUCUGCCCUCAGAGCUCGAGAACAUCUUCGGAUGCAGAGGAGGCAGGCUUCGGUGGCGCGAUAGCGCCAACGUCCUCAACCUCCAAUGCAUCCCACCACAUGAUGAUGCCUGAAGAGCCUUGGUUUUUUG

Variants of: B1
Assay: polymerase ribozyme fitness, log enrichment relative to wild type (log ratio); higher = more active; in vitro selection for triplet polymerase activity
How it was run: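 Mutant libraries were PCR-built and transcribed for each subunit of a heterodimeric triplet polymerase ribozyme and selected for one round in triplicate at −7 °C, frozen, before gel excision of extended constructs and streptavidin-bead capture. Input and output libraries were Illumina-sequenced, keeping genotypes with ≥10 input reads and ≥1 read per output. Fitness is a logarithmic ratio of genotype to wild-type enrichment, in base 2, using inverse-variance-weighted replicate averages.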

| Variant | polymerase ribozyme fitness (log ratio) |
| --- | --- |
| GACCAAUCUGCCCUCAGAGCUCGAGAACAUCUUCGGAUGCAGAGGAGGCAGGCUUCGGUAGCGCGAUAGAGCCAACGUCCUCAACCUCCAAUGCAUCCCACCACAUGAUGAUGCCUGAAGAGCCUUGGUUUUUUG | -3.02 |
| GACCAAUCUGCCCUCAGAGCUCGAGAACAUCUUCGGAUGCAUAGGAGGCAGGCUUCGGUGGCGCGAUAGCGCCAACGUCCUCAACCUUCAAUGCAUCCCACCACAUGAUGAUUCCUGAAGUGCCUUGGUUGUUUG | -1.8 |
| GACCAAUCUGCGCUCAGAGCUCGAGAACAUCUUCGGAUGCAGAGGAGGCAGGCUCCGGUGGCGCGAUAGCGCCAACGUCCUCAACCUCCCAUGCAUCCCACCACAUGAUGAUGCCUGAAGAGCCUUGGUUUUUUG | -1.45 |
| GACCAAUCUGCCCUCAGUGCUCGAGAACAUCUUCGGAUGCAGACGAGGCAGGCUUCGGUGGCGCGAUAGCGCAAACGUCCUCAACCUCCCAUGCAUCCCACCACAUGAUGAUGCCUGAAGAGCCUUGGUUUUUUG | -1.95 |
| GACCAAUCUGCCCUCAGAGCUCGAGAACAUCUUCGGAUACAGAGGAGGCAGGCUUCGGUGGCGCGAUAGCGCCAACGUCCUCAACCUCCAAUGCAUCCCACCACAUGAUGAUGCCAGAAGAGCCUUGGCUUUUUG | -3.92 |
| GACCAAUAUGCCCUCAGAGCUCGAGAACAUCUUCGGAUGCAGAGGAGGCAUGCUUCGGAGGCGCGAUAGCGCCAACGUCCUCUAGCUCCAAUGCAUCCCACCACAAGAUGAUGCCUGAAGAGCCUUGGUUUUUUG | -6.35 |
| GACCAAUCUGCCCUCAGAGCUCGAGAACAUCUUCGGAUGCAGAGGAGGCAGGCUUCGGUGGCGCGAUAUCGCCAACGUCCUCAACUUCCAAUGCAUCCCAUUACAUGAUGAUGCCUGAACAGCCUUGGUUUUUUG | 0.552 |
| GACCAAUCUGCCCUCAGUGCUCGAGAACAUCUUCGGAUGCAAAGGAGGCAGGCUUCGGUGGCGCGAUAGCGCCAACGUCCUCAACCUCCAAUGCAUCCCACCACAUGAUGAUGCCUGAAGAGCCUUGGUAUUUUG | -3.41 |
| GACCAAUCUGCCCUCAGAGCUCGAGAACAUCUUCUGAUGCAGAGGAGGCAGGCUUCGGUGGCGCGAUAGCGCCAACGUCCUCAACCUCCCAUGCAUCCCACCACAUGAUGAUGCCUGAAGAGCCUUGGUUUUUUG | -6.98 |
| GACCAAUCUGCCCUCAUAGCUCGAGAACAUCUUCGGAUGCAGAGGAGGCAGGCUUCGGUGGCGUGAUAGCGCCAACGUCCUCAACCUCCAAUGCAUCCCACCACAUGAUGAUGCCUGAAGAGCCUUGGUUUUUUG | -2.46 |
| GACCAAUCUGCCCUCAGAGCUCGAGAACAUCUUCGGAUGCAGAGGAGGCAGGCUUCGGUGGCGCGAUAGCGCCAACGUCCUCAACCUCCAAUGCAUCCCACCACAUGAUGAUGCCGGAAUAGCCUUGGUUUUUUG | -2.52 |
| GACCAAUCUGCACUCUGAGCUCGAGAACAUCUUCGGAUGCAGAGGAGGCAGGCUUGGGUGGCGCGAUAGCGCCAACGUCCUCAACCUCCAAUGCAUCCCACCACAUGAUGAUGCCUGAAGAGCAUUGGUUUUUUG | -0.00308 |
| GACCAAUCUGCCCUCAGAGCUCGAGAACAUCUUCGGAUGCAGAGGAGGCAGGCUUCGGUGACGCGAUAGCGCCAACGUCCUCAACCUCCAAUGCAUCCUACCACAUGAUGAUCCCUGAAGAGCCUUGGUUUUUUG | -5.29 |
| GACCAAUCUGCCUUCAGAGCUCGAGAACAUCUUCGGAUGCAGAGGAGGCAGGUUUCGGUGGCGCGAUAGCGCCAACGUCCUCAACCUCCAACGCAUCCCACCACAUGAUGAUGCCUGAAGAGGCUUGGUUAUUUG | -0.0541 |
| GACCAAUCUGCCCUCGGAGCUCGAGAACAUCUUCGGAUGCAGAGGAGGCAGGCUUCGGUGGCUCGAUAGCGCCAACGUCCUCAACCUCCAAUGCAUCCCACCACAUGAUGAUGCCUGAAGAGCCUUGGUUUUUUG | -1.65 |
| GAGCAAUCUGCCCUCAGAGCUCGAGAACAUCUUCGGAUGCAGAGGAGGCAGGCUUCGGUGGCGCGAUAGCGCCAACGACCUCAACCUCCAAUGCAACCCACCACAUGAUGAUGCCUGAAGAGGCUUGGUUCUUUG | -0.54 |
| GACCAAUCUGCUCUCAGAGCUCGAGAACAUCUUCGGAUGCGGAGGAGGCAGGCUUCGGUGGCGCGAUAGCGCCAACGUCCUCAACCUCCAAUGCAUCCCACCACAUGAUGAUGCCUGAAGAGCCUUGGUUUUUUG | 0.638 |
| GACCAAUCUGCCCUCAGAGCUCGAGAACAUCUUCGGAUGCAGAGGAGGCAGGCUUCGGUGACGCGAUAGCGCCAACAUCCUCAACCUCCAAUGCAUCCCACCACAUGAUGAUGCCUGAAGAGCCUUGGUUUUUUG | -1.19 |
| GACCAAUCUGCCCUCAGAUCUCGAGAACAUCUUCGGAUGCAGAGGAGGCAGGCUUCGGUGGUGCGAUAGCGCCAACGUCCUCAACCUCCAAUGCAUCCCACCACAUGAUGAUGCCUGAAGAGCCUUGGUUUUUUG | -3.18 |
| GACCAAUCUGCCCUCAGAGCUCGAGAACAUCUUCGGAUGCAGAGGAGGCAGGUUUCGGUGGCGCGAUAGCGCCAACGUCCUCAACCUCCAAUGCAUCCCACCACAUGAUGAUACCUGAAGAGCCUUGGUUUUUUG | -1.57 |
| GACCAAUCUGCCCUCAGAGCUCGAGAACAUCUUCGGAUGCAGAGGAGGCAGGCUUCAGUGGCGCGUUAGCGCCAACGUCCUCAACCUCCAAUGCAUCCCACCACAUGAUGAUGCGUGAAGAGCCUUGGUUUUUUG | -4.64 |
